Experimental data as given in US20050226864A1.

Target: recombinant, GPI-linked human FcRn on the surface of NS0 cells (human) (UniProt P55899)
Assay: competitive flow cytometry on NS0 cells with human FcRn, pH 6.0; competitor biotinylated TNF-RII/Fc-fusion protein

Chain of UniProt P55899 (P55899 24-297, chain 1 of 2): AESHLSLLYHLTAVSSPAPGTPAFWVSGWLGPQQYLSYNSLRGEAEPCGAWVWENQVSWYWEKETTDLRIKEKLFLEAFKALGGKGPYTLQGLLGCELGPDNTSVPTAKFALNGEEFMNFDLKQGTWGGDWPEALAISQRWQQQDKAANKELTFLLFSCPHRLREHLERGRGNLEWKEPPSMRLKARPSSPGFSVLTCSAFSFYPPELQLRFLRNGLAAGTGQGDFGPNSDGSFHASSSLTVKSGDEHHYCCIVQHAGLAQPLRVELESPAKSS
Chain of UniProt P55899 (b2m, as listed by the source, chain 2 of 2): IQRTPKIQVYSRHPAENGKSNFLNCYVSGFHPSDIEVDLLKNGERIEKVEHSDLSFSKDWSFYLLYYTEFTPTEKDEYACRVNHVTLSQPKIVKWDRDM

Question: Which fold better binding than the wild-type does the source give for “TNF-RII/Fc-fusion protein double mutant T250Q/M428L (Fc fusion)” here?
Answer: The fold better binding than the wild-type was 2 fold.
